One molecule from patent US20060177862A1 (CAMBRIDGE ANTIBODY TECHNOLOGY, published 2006) can be followed below.

The target in this assay is T1, TGFβ-1 (UniProt P01137 279-390).
T1 construct: Antigen coated on ELISA plates at 1 µg/ml
Briefly: method not stated; value listed for the panel of existing phage-display scFv.

T1 sequence (P01137 279-390 limits assumed): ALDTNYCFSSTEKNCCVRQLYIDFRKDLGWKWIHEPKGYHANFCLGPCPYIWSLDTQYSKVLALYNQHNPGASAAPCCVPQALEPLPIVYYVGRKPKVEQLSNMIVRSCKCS

B1: ScFv 1 (scFv, V domains shown)
VH: EVQLVESGGGLVQPGGSLRLSCAASGYAFTNYLIEWVRQAPGKGLEWVGVINPGSGGSNYNEKFKGRATISADNSKNTLYLQMNSLRAEDTAVYYCARSGGFYFDYWGQGTLVTVSS
VL: DIQMTQSPSSLSASVGDRVTITCRASQSVLYSSNQKNYLAWYQQKPGKAPKLLIYWASTRESGVPSRFSGSGSGTDFTLTISSLQPEDFATYYCHQYLSSDTFGQGTKVEIK
As to B1, binding was put at a Kd of 8 nM.
